Assay results as given in article PMC10367113 (Nature chemical biology, 2022).

T1: Bl_Man38B (Bifidobacterium longum, UniProt Q8G4Q0)
T1 sequence (Q8G4Q0 1-1046): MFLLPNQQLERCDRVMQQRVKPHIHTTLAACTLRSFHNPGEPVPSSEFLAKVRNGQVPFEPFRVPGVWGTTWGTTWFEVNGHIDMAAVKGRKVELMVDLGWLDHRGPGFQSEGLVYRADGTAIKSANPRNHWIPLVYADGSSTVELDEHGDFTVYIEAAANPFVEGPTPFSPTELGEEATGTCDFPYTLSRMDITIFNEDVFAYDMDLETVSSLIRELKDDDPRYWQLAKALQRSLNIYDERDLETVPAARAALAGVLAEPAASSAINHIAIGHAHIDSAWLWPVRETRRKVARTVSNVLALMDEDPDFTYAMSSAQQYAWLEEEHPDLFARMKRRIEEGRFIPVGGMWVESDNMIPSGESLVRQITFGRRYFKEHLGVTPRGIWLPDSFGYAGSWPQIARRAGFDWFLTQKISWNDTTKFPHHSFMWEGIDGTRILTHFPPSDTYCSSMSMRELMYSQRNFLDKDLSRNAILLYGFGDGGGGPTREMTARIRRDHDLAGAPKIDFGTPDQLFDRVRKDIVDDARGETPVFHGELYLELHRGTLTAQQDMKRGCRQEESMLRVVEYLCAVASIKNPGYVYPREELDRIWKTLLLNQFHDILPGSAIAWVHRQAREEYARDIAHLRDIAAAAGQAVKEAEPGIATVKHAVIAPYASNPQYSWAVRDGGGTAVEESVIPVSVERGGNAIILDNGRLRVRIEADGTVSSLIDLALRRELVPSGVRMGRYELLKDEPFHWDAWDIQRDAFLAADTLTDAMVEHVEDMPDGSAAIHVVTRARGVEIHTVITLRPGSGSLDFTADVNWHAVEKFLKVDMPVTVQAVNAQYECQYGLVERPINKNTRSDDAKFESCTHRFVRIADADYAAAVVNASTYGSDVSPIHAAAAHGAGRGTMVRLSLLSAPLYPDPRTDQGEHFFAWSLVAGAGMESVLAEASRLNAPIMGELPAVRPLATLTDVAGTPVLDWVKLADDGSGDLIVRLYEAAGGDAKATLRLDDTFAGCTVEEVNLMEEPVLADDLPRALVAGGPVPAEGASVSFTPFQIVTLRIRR

T2: Bl_Endo85 (Bifidobacterium longum, UniProt Q8G4P3)
T2 sequence (Q8G4P3 38-937): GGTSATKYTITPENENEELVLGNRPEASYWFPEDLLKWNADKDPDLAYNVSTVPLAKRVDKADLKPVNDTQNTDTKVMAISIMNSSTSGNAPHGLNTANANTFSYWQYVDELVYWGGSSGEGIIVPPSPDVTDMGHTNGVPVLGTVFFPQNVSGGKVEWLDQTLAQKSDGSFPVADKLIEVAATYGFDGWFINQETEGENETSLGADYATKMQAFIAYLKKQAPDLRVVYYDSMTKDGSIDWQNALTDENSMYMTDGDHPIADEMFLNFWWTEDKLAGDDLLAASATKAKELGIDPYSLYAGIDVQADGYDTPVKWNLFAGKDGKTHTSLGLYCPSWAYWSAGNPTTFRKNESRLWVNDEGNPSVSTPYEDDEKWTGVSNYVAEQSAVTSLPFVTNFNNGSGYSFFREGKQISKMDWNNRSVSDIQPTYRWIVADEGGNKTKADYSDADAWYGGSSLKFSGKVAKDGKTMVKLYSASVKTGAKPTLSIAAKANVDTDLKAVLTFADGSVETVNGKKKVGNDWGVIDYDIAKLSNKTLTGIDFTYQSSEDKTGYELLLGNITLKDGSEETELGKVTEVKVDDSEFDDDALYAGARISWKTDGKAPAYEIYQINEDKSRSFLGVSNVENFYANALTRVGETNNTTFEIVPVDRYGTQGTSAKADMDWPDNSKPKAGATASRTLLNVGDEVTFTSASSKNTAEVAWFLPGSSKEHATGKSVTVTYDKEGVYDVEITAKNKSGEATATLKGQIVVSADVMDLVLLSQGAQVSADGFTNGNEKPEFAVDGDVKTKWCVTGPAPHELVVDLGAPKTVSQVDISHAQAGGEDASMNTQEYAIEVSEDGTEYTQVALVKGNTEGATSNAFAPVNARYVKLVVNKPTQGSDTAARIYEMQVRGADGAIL

B1: Bl_Man38A, GH38 α-mannosidase from Bifidobacterium longum NCC2705 (enzyme)
chain: MFLKPEQQLERCRRIVRQRVDPHIHPSIAQLTVESYDIPGEPMPSDEFFAKLDRGDIDFKPFMLGSEWGTTWGTVWFRLTGTVPAGYPKGKPLELILDLGWYPHSCGGHIEGLVYRADGTAIKAVHPLNYWVPFMDAEGNAQVPVAEDGSFTLYLEAASNPLLLGVPPFIETELGDHATGKPDEPYVFKSADLAEFDERYENYSVDLDVVSSLMEFADKQSPRYWQLAKALQRSLNAYDERNPESVEAARAVLAGVLAKPANASAMNVSAIGHAHIDSAWLWPVRETRRKVARTVSNALALMDADPDFKYAMSSAQQYAWLEEDHPDIFKRMKRRIEEGRFIPVGGMWVEADGMLPAGESLIRQIAYGRKYFKEHLGVEPKGVWLPDSFGYTGAWPQIARRAGYEWFLTQKISWNDTTKFPHHSFMWEGIDGSRIFTHFPPADTYAAWCKVQELDYAEKNFQDKDLSDRSLLLFGFGDGGGGPTRNMMEHLHRYENLEGVSKVSIEEPNDFFDKAHQQLAENAGPEMPVWKGELYLELHRGTLTSQQDMKRGCRQEESLLRTVEYLGAAAVLSDPEYVYPREELDRIWKTLLLNQFHDILPGSAIAWVHREAREDYRRDLKRLAEIAQDMCAVLRKANPQADLLAEARISQFRNDGASWHANRINEPTDALSVLTQTLDNGRVLLANGVLSVTIEADGTISSLLDEEHGRELVPAGTRLGQYELLRDEPAVWDAWEIERESLLMANAVTGSIESVNTENGAAQVHVHTADGDTVITTTITLRPGSHTLDFHADIDWHERERFLKVDLPLGIVADQATYDCQYGLIRRPIVKNTASDEAKYESSTNRFAIIGDAGYAAAVINGSVYGSDASPIAGNAAEGRDSGTMFRLSLLSAPTFPDPRTDIGSHEFDWSVVADATVDRALDAAGVLNAPVLHDVPDITPLASIESVNGTVVLDWMKLADDGSGDLIVRAYEAAGGQADAMLHVCPALAGASVHETNVLEGDDLAADLPVALQDGRQNAEGATLHFGPFQLATLRITR
B2: Bl_Man38B, GH38 α-mannosidase from Bifidobacterium longum NCC2705 (enzyme)
chain: T1 sequence (Q8G4Q0 1-1046)
B3: Bl_Man38C, GH38 α-mannosidase from Bifidobacterium longum NCC2705 (enzyme)
chain: MLLKVNREIDRCKRVMRERVWPHIHQVLAQCTVGAVKNPGEPEMPAAFITRAVSGQVIFQPLAVGEPWGTSWGTTWIRVEGQLPETLPEGRAIELVFNLGWLEWPVGGHIEAMAYRADGTVIKALHPRNHWMPLVSADGVKDRVVNPDGSFVVYVEGAYNPNVPSFTVTELGTKPTGKADERYEFSSIDIAALDQDMFDYWADLDVVTGSLENMNDADPRYWKLAKAMQRSINLWDEKDYNTLALARKALDKVMHNPANASAMTLTAMGHSHIDSAWLWPVRETERKVGRTVSNALALMDIDPDFTYVMSAAQHFAWLEERHPDLFERVKARIAEGRFIPVGGMWVESDGTMPCGESLIRQISYGKRYFKEKLGVVPNGIWLPDSFGYTGAWPQIAKRSGYSWFLTQKLCWNDTTRLPHHSFMWEGVDGSQIFTHFPPADKYDSDMSANDMAYVQSNYKDKDLSDRGILLFGYGDGGGGPIREMTMREHRFESFEGMPKVEYGTPDDFFSKAETEMKAEAGSEMPRWKGEFYFELHRKTLTSQQEMKRGCRKEESMLRTVEYLGVVASLESADYVYPTERIDRIWKTLLLSQFHDILPGSAIEWAHRVAREEYARDLKALSDIARDAIAAIAVANPDVARIAKARISQFADVDPWRPASLVSCGEPVEVNRREDGSATLDNGLLCVHVAADGTVDSMIDLKSGREMVAKDHVMGRYEILKDEPGVFDAWDVERDAFLCATALADGHIVSIETTADGSAVIVTKNSYRDDEISTTITLRPGKSQLDFHADVEWNVPEKLLKVDIPMALSASRAQYECQYGLIERPIVKNTEGEEAMFESCSHRFVRIHDSSYGIGVANGSTYGSDVSSLRDRDDALAGTMVRMSLVAAPTAPDPRTDIGHHEFDWTVLPCASVAPLVAAAGEINAPTIENMPDIAAPITLEPIEGTPVIDWIKLADDGSGDIVARLYEAAGAKAKAMLHVGGTLDGWTVRETNTLEQDESYPDEPAGLIGGKQQAEGAELALNPFQLTTLRLSRA

How the values were obtained:
Bl_Man38B = target: T1, Bl_Man38B; experiment: LC-MS hydrolysis kinetics; format: biochemical; settings: pH 5.5, 37 °C, 0.1 mM CoCl2
Bl_Endo85 = target: T2, Bl_Endo85; experiment: LC-MS; format: biochemical; settings: 150 mM ammonium acetate pH 5.0, 37 °C, 16 h; product Man9GlcNAc
cryo-EM structure = target: the molecule itself; experiment: cryo-EM structure

| Molecule | stoichiometry N (cryo-EM structure) | also measured |
| --- | --- | --- |
| OC[C@H]1O[C@H](O[C@H]2[C@H](O)[C@@H](CO)OC(O)[C@H]2O)[C@@H](O)[C@@H](O)[C@@H]1O (stereo partly drawn) [α-1,3-mannobiose] | – | Km (Bl_Man38B): Bl_Man38B was efficient over the three disaccharides |
| CC(=O)N[C@@H]1[C@@H](O)[C@H](O[C@@H]2O[C@H](CO)[C@@H](O[C@@H]3O[C@H](CO[C@H]4O[C@H](CO[C@H]5O[C@H](CO)[C@@H](O)[C@H](O)[C@@H]5O[C@H]5O[C@H](CO)[C@@H](O)[C@H](O)[C@@H]5O)[C@@H](O)[C@H](O[C@H]5O[C@H](CO)[C@@H](O)[C@H](O)[C@@H]5O[C@H]5O[C@H](CO)[C@@H](O)[C@H](O)[C@@H]5O)[C@@H]4O)[C@@H](O)[C@H](O[C@H]4O[C@H](CO)[C@@H](O)[C@H](O)[C@@H]4O[C@H]4O[C@H](CO)[C@@H](O)[C@H](O)[C@@H]4O[C@H]4O[C@H](CO)[C@@H](O)[C@H](O)[C@@H]4O)[C@@H]3O)[C@H](O)[C@H]2NC(C)=O)[C@@H](CO)O[C@H]1NC(=O)C[C@H](N)C(=O)O [Man9GlcNAc2-Asn] | – | LC-MS (Bl_Endo85): Reactions of Bl_Endo85 against Man5GlcNAc2-Asn (e) and Man9GlcNAc2-Asn (g) |
| B1 | 4 | – |
| B2 | 4 | – |
| B3 | 4 | – |
